These results are taken from PMC4484435, “Leucine-rich α-2-glycoprotein promotes TGFβ1-mediated growth suppression in the Lewis lung carcinoma cell lines” (Oncotarget, 2015).

For the test, the target named is T1, transforming growth factor beta 1 (UniProt P01137 279-390).
T1 construct: Transforming growth factor beta 1 (TGFβ1), the mature growth factor cut from its precursor; The source of the TGFβ1 is told only for the cell assays (PeproTech); also called TGFβ1; TGFβ; source: bought: PeproTech (cell assays)
The experiment in a line: SPR; BIAcore 3000; which partner was immobilised and the conditions are not given. To be noted: both partners purified. (In general: In SPR one partner is held on a chip, and binding of the other changes the refractive index at the surface.)

In general, Kd refers to the equilibrium constant for the complex coming apart. High values mean weaker binding, low ones tighter binding.

T1 sequence (P01137 279-390): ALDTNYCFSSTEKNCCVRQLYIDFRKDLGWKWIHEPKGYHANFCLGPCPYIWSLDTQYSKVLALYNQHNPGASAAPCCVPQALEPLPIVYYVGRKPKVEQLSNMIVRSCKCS

B1: Leucine-rich α2-glycoprotein (natural protein)
chain: LKECLILQSAEGSTVSCHGPTEFPSSLPADTVHLSVEFSNLTQLPAAALQGCPGLRELHLSSNRLQALSPELLAPVPRLRALDLTRNALRSLPPGLFSTSANLSTLVLRENQLREVSAQWLQGLDALGHLDLAENQLSSLPSGLLASLGALHTLDLGYNLLESLPEGLLRGPRRLQRLHLEGNRLQRLEDSLLAPQPFLRVLFLNDNQLVGVATGSFQGLQHLDMLDLSNNSLSSTPPGLWAFLGRPTRDMQDGFDISHNPWICDKNLADLCRWLVANRNKMFSQNDTRCAGPEAMKGQRLLDVAELGSL
Molecule B1 had a Kd of 2320 nM.
